The target in assay [1] is T1, hPDE5 mutants (Homo sapiens, UniProt O76074). The assay is described as follows: GFP FACS analysis of hPDE5 mutant library clones in NIH3T3 cell pools. The following applies: experiment 1; for Stabilization ratio: GFP intensity 10 μM vardenafil vs DMSO; for Destabilizing mutation co-efficient: GFP intensity mutant vs PDE5 wildtype construct in absence of ligand; for MFI 10 μM VDF / MFI DMSO: GFP, NIH3T3 cell pools; for MFI 10 μM VDF: 10 μM vardenafil 24 hr; for MFI DMSO: no ligand (DMSO). Background: In flow cytometry, cells or beads pass a laser one at a time.

Assay [2] has as its target T1, hPDE5 mutants. The assay is described as follows: GFP MFI by FACS in HCT116 cells transduced with hPDE5 constructs. It counts as cell-based. On the procedure: (§1) Desirable qualities of a DD include, low expression of the SRE in the absence of ligand and ligand dependent stabilization of the SRE. Constructs were generated using DDs linked to GFP using an SG linker. […] The mean fluorescence intensity (MFI) of GFP was analyzed by FACS. […] Destabilizing mutation coefficient less than 1 are desirable.
(§2) Mean fluorescence intensity (MFI) was measured by FACS. […] Destabilizing mutation coefficient ratios less than 1 are desirable.
(§3) Mean fluorescence intensity (MFI) was measured by FACS. […] Destabilizing mutation co-efficient ratios less than 1 are desirable.
(§4) Mean fluorescence intensity (MFI) was measured by FACS. […] Destabilizing mutation coefficient less than 1 are desirable.
as §4
(§5) Mean fluorescence intensity (MFI) of GFP was measured by FACS.
(§6) Mean fluorescence intensity (MFI) was measured by FACS.
(§7) The media containing the ligand was removed and fresh media without the ligand was added.
(§8) The properties of the DDs were analyzed in the presence and absence of ligands via FACS as previously described.
(§9) GFP fluorescence was measured by FACS.
(§10) The properties of the DDs were analyzed via FACS both in the presence and absence of ligands.
as §9

Assay [3] concerns hPDE5 mutants. The description is as above. Format: cell-based, human. On the procedure:
as §1, §2, §3, §4, §4, §5, §6, §7, §8, §9, §10, §9

The mark [4] stands for this setting: Off-kinetics, time 50 hrs (ligand removed at 48 h).
Where [5] appears, read: Off-kinetics, time 52 hrs (ligand removed at 48 h).
Where [6] appears, read: Off-kinetics, time 54 hrs (ligand removed at 48 h).
The mark [7] stands for this setting: Off-kinetics, time 56 hrs (ligand removed at 48 h).
Where [8] appears, read: Off-kinetics, time 60 hrs (ligand removed at 48 h).
[9] abbreviates: Off-kinetics, time 72 hrs (ligand removed at 48 h).
Where [10] appears, read: Off-kinetics, time 80 hrs (ligand removed at 48 h).
[11] abbreviates: Off-kinetics, time 96 hrs (ligand removed at 48 h).

“LibC000024: hPDE5 (Amino acid 535-860 of WT, T784I), DD generated by random mutagenesis”: in the assay with hPDE5 mutants [1], the “Stabilization ratio” value is listed as 1.4, the Destabilizing mutation co-efficient came to 0.88, the “MFI 10 μM VDF” value stood at 6905 and the “MFI DMSO” value came to 5039.

Turning to “LibC000014: hPDE5 (Amino acid 535-860 of WT, A767E), DD generated by random mutagenesis”, in the assay with hPDE5 mutants [1], the “Stabilization ratio” value is 2.8, the Destabilizing mutation co-efficient amounted to 0.44, the “MFI 10 μM VDF” value is on record as 6998 and the “MFI DMSO” value was 2500.

Regarding “LibC000023: hPDE5 (Amino acid 535-860 of WT, E858V), DD generated by random mutagenesis”, in the assay with hPDE5 mutants [1], the “Stabilization ratio” value is on record as 1.4, the Destabilizing mutation co-efficient was found to be 0.77, the “MFI 10 μM VDF” value is on record as 6121 and the “MFI DMSO” value was found to be 4386.

Regarding “LibC000021: hPDE5 (Amino acid 535-860 of WT, V594I), DD generated by random mutagenesis”, in the assay with hPDE5 mutants [1], the “Stabilization ratio” value is 2.6, the Destabilizing mutation co-efficient came out at 0.30, the “MFI 10 μM VDF” value is 4440 and the “MFI DMSO” value amounted to 1732.

With “LibC000002: hPDE5 (Amino acid 535-860 of WT, I700F, E796G), DD generated by random mutagenesis”, in the assay with hPDE5 mutants [1], the “Stabilization ratio” value is 3.2, the Destabilizing mutation co-efficient stood at 0.05, the “MFI 10 μM VDF” value is recorded as 981 and the “MFI DMSO” value is listed as 309.

Turning to “LibC000016: hPDE5 (Amino acid 535-860 of WT, Q743L), DD generated by random mutagenesis”, in the assay with hPDE5 mutants [1], the “Stabilization ratio” value stood at 2.4, the Destabilizing mutation co-efficient is 0.51, the “MFI 10 μM VDF” value amounted to 6869 and the “MFI DMSO” value is given as 2895.

For “LibC000007: hPDE5 (Amino acid 535-860 of WT, H613L, D724Y, F755Y), DD generated by random mutagenesis”, in the assay with hPDE5 mutants [1], the “Stabilization ratio” value is listed as 1.0, the Destabilizing mutation co-efficient turned out to be 0.04, the “MFI 10 μM VDF” value was 234 and the “MFI DMSO” value was 234.

As to “LibC000010: hPDE5 (Amino acid 535-860 of WT, R658H), DD generated by random mutagenesis”, in the assay with hPDE5 mutants [1], the “Stabilization ratio” value amounted to 2.1, the Destabilizing mutation co-efficient was determined as 1.17, the “MFI 10 μM VDF” value came to 13940 and the “MFI DMSO” value was found to be 6713.

For the substance “LibC000018: hPDE5 (Amino acid 535-860 of WT, N605Y, I715K), DD generated by random mutagenesis”, in the assay with hPDE5 mutants [1], the “Stabilization ratio” value turned out to be 3.0, the Destabilizing mutation co-efficient turned out to be 0.18, the “MFI 10 μM VDF” value amounted to 3102 and the “MFI DMSO” value stood at 1038.

For the substance “LibC000011: hPDE5 (Amino acid 535-860 of WT, S562G, L727P, R847T), DD generated by random mutagenesis”, in the assay with hPDE5 mutants [1], the “Stabilization ratio” value came to 1.2, the Destabilizing mutation co-efficient stood at 0.01, the “MFI 10 μM VDF” value amounted to 67 and the “MFI DMSO” value was 57.

For the substance “LibC000019: hPDE5 (Amino acid 535-860 of WT, F564I, N662Y, H685L, L693P, F736I), DD generated by random mutagenesis”, in the assay with hPDE5 mutants [1], the “Stabilization ratio” value was found to be 0.9, the Destabilizing mutation co-efficient worked out at 0.06, the “MFI 10 μM VDF” value was determined as 285 and the “MFI DMSO” value came to 320.

With “OT-001216: hPDE5 wildtype construct linked to GFP”, the “Sildenafil Stabilization ratio” value with hPDE5 mutants [2] (10 μM, 48 h, HCT-116) was 1.03. Further, the “Vardenafil Stabilization ratio” value in the assay with hPDE5 mutants [2] (10 μM, 48 h, HCT-116) is reported as 1.04. In addition, the “MFI Sildenafil” value with hPDE5 mutants [2] (GFP, 10 μM Sildenafil 48 h, HCT-116) is recorded as 66860. Moreover, the “MFI Vardenafil” value in the assay with hPDE5 mutants [2] (GFP, 10 μM Vardenafil 48 h, HCT-116) is on record as 67388. Moreover, in the assay on hPDE5 mutants [3] (GFP, DMSO 48 h, HCT-116), the “MFI DMSO” value was found to be 64942. Further, the Stabilization ratio in the assay with hPDE5 mutants [3] (Off-kinetics, time 48 hrs (after 48 h ligand treatment)) turned out to be 2.24; with hPDE5 mutants [3] (setting [4]), 2.14; with hPDE5 mutants [3] (setting [5]) it was 2.12; in the assay on hPDE5 mutants [3] (setting [6]) it was 2.10; with hPDE5 mutants [3] (setting [7]), 1.80; with hPDE5 mutants [3] (setting [8]), 1.85. Moreover, the Stabilization ratio in the assay on hPDE5 mutants [3] (setting [9]) is given as 1.54; in the assay on hPDE5 mutants [3] (setting [10]) it was 1.39; in the assay on hPDE5 mutants [3] (setting [11]) it was 1.23; in the assay with hPDE5 mutants [3] (Sildenafil 30 μM, 24 h, HCT116), 1.22; in the assay with hPDE5 mutants [3] (Tadalafil 100 μM, 24 h, HCT116), 1.60; in the assay on hPDE5 mutants [3] (Vardenafil 30 μM, 24 h, HCT116), 1.14. In addition, the MFI in the assay on hPDE5 mutants [3] (Off-kinetics, time 48 hrs (after 48 h ligand treatment), HCT 116) came out at 102137; in the assay with hPDE5 mutants [3] (setting [4]), 97225; in the assay on hPDE5 mutants [3] (setting [5]), 96264; with hPDE5 mutants [3] (setting [6]), 95410; in the assay with hPDE5 mutants [3] (setting [7]), 81733; in the assay on hPDE5 mutants [3] (setting [8]) it was 84323. Further, the MFI in the assay with hPDE5 mutants [3] (setting [9]) was 70151; in the assay on hPDE5 mutants [3] (setting [10]) it was 63208; in the assay with hPDE5 mutants [3] (setting [11]), 55918; in the assay on hPDE5 mutants [3] (Sildenafil 30 μM, 24 h, HCT116) it was 75478; in the assay with hPDE5 mutants [3] (Tadalafil 100 μM, 24 h, HCT116), 58468; with hPDE5 mutants [3] (Vardenafil 30 μM, 24 h, HCT116) it was 70898.

OT-001186: hPDE5 R732G AcGFP construct: in the assay with hPDE5 mutants [2] (hotspot constructs, HCT116), the “GFP by FACS, Sildenafil 10 μM” value stood at 288 and the “GFP by FACS, Vardenafil 1 μM” value stood at 854. For the same substance, in the assay with hPDE5 mutants [3] (hotspot constructs, HCT116, DMSO control of Sildenafil), the “GFP by FACS, Sildenafil 0 μM (DMSO)” value stood at 298. Further, in the assay on hPDE5 mutants [3] (hotspot constructs, HCT116, DMSO control of Vardenafil), the “GFP by FACS, Vardenafil 0 μM (DMSO)” value is reported as 176.

For the substance “LibC000003: hPDE5 (Amino acid 535-860 of WT, D724G, K848N), DD generated by random mutagenesis”, in the assay with hPDE5 mutants [1], the “Stabilization ratio” value amounted to 2.9, the Destabilizing mutation co-efficient came to 0.11, the “MFI 10 μM VDF” value came out at 1870 and the “MFI DMSO” value turned out to be 656.

With “LibC000017: hPDE5 (Amino acid 535-860 of WT, Y709H, F787V), DD generated by random mutagenesis”, in the assay with hPDE5 mutants [1], the “Stabilization ratio” value was 2.9, the Destabilizing mutation co-efficient came to 0.39, the “MFI 10 μM VDF” value was determined as 6530 and the “MFI DMSO” value was 2244.

The values are drawn from patent publication US20220403001A1, “PDE5 DERIVED REGULATORY CONSTRUCTS AND METHODS OF USE IN IMMUNOTHERAPY” (Obsidian Therapeutics, Inc., priority 2018, published 2022).
